Results from patent US20230295275A1 (FLAGSHIP PIONEERING INNOVATIONS VI, published 2023).
Residue numbers refer to the chain shown, from its start.

B1: AB-1 full-length IgG1 (antibody, V domains shown)
VH: QMQLVQSGTEVKKPGESLKISCKGSGYGFITVWIGWVRQMPGKGLEWMGIIYPGDSETRYSPSFQGQVTISADKSINTAYLQWSSLKASDTAIYYCAGGSGISTPMDVWGQGTTVTVSS
VL: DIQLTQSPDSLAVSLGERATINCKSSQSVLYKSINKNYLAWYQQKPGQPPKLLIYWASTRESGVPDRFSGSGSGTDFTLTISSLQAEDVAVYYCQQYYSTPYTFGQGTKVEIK
B2: AB-2 full-length IgG1 (antibody, V domains shown)
VH: B1 VH with Y27S, F29T
VL: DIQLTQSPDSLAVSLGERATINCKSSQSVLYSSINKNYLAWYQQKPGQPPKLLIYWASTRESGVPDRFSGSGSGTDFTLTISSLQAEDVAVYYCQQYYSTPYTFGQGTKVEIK
B3: AB-4 full-length IgG1 (antibody, V domains shown)
VH: B1 VH with Y27S, V32Y, S103H
VL: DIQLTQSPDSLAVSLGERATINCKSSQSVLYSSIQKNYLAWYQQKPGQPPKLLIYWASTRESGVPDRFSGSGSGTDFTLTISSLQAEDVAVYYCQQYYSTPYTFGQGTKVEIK
B4: AB-3 full-length IgG1 (antibody, V domains shown)
VH: B1 VH with Y27S
VL: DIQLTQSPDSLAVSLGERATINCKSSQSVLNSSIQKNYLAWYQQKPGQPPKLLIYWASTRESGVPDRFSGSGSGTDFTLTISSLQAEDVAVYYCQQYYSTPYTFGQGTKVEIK
B5: AB-11 IgG1 (antibody, V domains shown)
VH: B1 VH with Q1E, M2V, T9A, Y27S, Q65E, N77S, I93M
VL: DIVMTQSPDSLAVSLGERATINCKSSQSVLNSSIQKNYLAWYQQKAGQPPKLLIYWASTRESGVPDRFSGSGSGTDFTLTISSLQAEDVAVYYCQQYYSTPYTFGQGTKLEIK
B6: AB-12 IgG1 (antibody, V domains shown)
VH: B1 VH with Q1E, M2V, T9A, Y27S, G35S, N77S, I93M
VL: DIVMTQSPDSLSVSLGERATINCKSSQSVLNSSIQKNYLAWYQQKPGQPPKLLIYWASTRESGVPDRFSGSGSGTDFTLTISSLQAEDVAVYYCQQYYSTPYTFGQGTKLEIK
B7: AB-10 IgG1 (antibody, V domains shown)
VH: B1 VH with Q1E, M2V, T9A, E16G, Y27S, N77S, I93M
VL: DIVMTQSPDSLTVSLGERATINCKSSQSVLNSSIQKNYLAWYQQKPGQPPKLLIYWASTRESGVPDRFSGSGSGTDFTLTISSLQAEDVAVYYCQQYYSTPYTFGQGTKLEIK
B8: AB-9 IgG1 (antibody, V domains shown)
VH: B1 VH with Q1E, M2V, T9A, K23Q, Y27S, N77S, I93M
VL: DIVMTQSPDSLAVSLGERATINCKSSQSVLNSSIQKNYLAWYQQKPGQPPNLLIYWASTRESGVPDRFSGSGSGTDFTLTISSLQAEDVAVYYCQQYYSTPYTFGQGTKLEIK
B9: AB-13 IgG1 (antibody, V domains shown)
VH: B1 VH with Q1E, M2V, T9A, Y27S, I70L, N77S, I93M, Q111K
VL: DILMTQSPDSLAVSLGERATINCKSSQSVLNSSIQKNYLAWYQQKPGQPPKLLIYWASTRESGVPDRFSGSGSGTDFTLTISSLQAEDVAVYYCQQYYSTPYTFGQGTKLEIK
B10: AB-8 IgG1 (antibody, V domains shown)
VH: B1 VH with Q1E, M2V, T9A, Y27S, S61N, P62Q, Q65K, N77S, I93M, T114M
VL: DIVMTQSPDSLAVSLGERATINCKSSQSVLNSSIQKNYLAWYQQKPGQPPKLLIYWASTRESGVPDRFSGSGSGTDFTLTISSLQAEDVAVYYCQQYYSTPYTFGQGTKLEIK
B11: AB-5 full-length IgG1 (antibody, V domains shown)
VH: B1 VH with Y27S, V32Y, S103Y
VL: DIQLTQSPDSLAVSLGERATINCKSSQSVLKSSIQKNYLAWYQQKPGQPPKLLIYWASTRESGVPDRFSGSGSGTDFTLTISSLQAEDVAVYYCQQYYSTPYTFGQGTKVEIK
B12: AB-6 full-length IgG1 (antibody, V domains shown)
VH: B1 VH with Y27S, F29L, S103Y
VL: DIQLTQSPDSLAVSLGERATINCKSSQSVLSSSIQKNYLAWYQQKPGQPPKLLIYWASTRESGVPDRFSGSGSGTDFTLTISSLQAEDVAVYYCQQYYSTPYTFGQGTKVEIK
B13: AB-7 full-length IgG1 (antibody, V domains shown)
VH: B1 VH with Y27S, V32Y, S103Y
VL: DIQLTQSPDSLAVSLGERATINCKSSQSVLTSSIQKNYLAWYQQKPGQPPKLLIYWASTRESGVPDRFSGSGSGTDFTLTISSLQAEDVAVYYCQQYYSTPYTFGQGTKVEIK

target: T1, SARS-CoV-2 receptor binding domain (RBD) (SARS-CoV-2, UniProt P0DTC2 319-527); test: not given

Point of comparison: B4, Kd 38.8 nM. Against it:
- B1 — 2.7-fold lower, 14.6 nM
- B2 — 2.2-fold higher, 84.9 nM
- B3 — within 1.5-fold, 36.1 nM

target: SARS-CoV-2-Spike (wildtype, on virus) (SARS-CoV-2, UniProt P0DTC2 14-1273); test: cell-based or functional assay

Point of comparison: B2, “Neutralization (ng/mL), Authentic Virus IC50” value 25000 ng/mL. Against it:
- B1 — 1.8-fold lower, 14200 ng/mL
- B4 — the same, 25000 ng/mL

Point of comparison: B2, “Neutralization (ng/mL), Authentic Virus IC80” value 25000 ng/mL. Against it:
- B1 — the same, 25000 ng/mL
- B4 — the same, 25000 ng/mL

Point of comparison: B2, “Neutralization (ng/mL), Pseudovirus IC50” value 324 ng/mL. Against it:
- B1 — 2.3-fold lower, 142 ng/mL
- B3 — 3.7-fold lower, 86.5 ng/mL

target: T1, SARS-CoV-2 receptor binding domain (RBD); test: DELFIA, RBD coated on plate, IgG1 in solution

B5: binds.
B6: binds.
B7: binds.
B8: binds.
B9: binds.
B10: binds.

target: T1, SARS-CoV-2 receptor binding domain (RBD); test: BLI (Octet Red96e), IgG on AHC biosensors, RBD in solution

B1 showed a Kd of 9.5 nM.

Binder B1 has a koff of 0.0091 s⁻¹.

B1 was tested, and the kon was 960000 M⁻¹ s⁻¹.

target: T1, SARS-CoV-2 receptor binding domain (RBD); test: BLI (Octet Red96e), IgG1 on AHC biosensors, RBD in solution

Point of comparison: B13, Kd 1.5 nM. Against it:
- B1 — 2.2-fold higher, 3.3 nM
- B11 — 5-fold lower, 0.3 nM
- B12 — 1.6-fold lower, 0.96 nM
- B4 — 3-fold higher, 4.5 nM

Point of comparison: B4, Req 1.3 nm shift. Against it:
- B1 — lower, 0.98 nm shift
- B11 — higher, 1.8 nm shift
- B12 — lower, 0.48 nm shift
- B13 — lower, 0.55 nm shift

Point of comparison: B12, Response 0.485 nm. Against it:
- B1 — higher, 1.06 nm
- B11 — higher, 1.84 nm
- B4 — higher, 1.42 nm
- B13 — higher, 0.591 nm

Point of comparison: B11, kobs 0.012 s⁻¹. Against it:
- B1 — 1.9-fold higher, 0.023 s⁻¹
- B12 — 2.6-fold higher, 0.031 s⁻¹
- B4 — 1.8-fold higher, 0.022 s⁻¹
- B13 — 2-fold higher, 0.024 s⁻¹

Point of comparison: B1, koff 0.00074 s⁻¹. Against it:
- B11 — 21-fold lower, 3.6e-05 s⁻¹
- B12 — 2.6-fold lower, 0.00029 s⁻¹
- B4 — within 1.5-fold, 0.00096 s⁻¹
- B13 — 2.1-fold lower, 0.00036 s⁻¹

Point of comparison: B11, kon 120000 M⁻¹ s⁻¹. Against it:
- B1 — 1.8-fold higher, 220000 M⁻¹ s⁻¹
- B12 — 2.5-fold higher, 300000 M⁻¹ s⁻¹
- B4 — 1.8-fold higher, 210000 M⁻¹ s⁻¹
- B13 — 1.9-fold higher, 230000 M⁻¹ s⁻¹

target: T1, SARS-CoV-2 receptor binding domain (RBD); test: BLI (Octet), IgG on anti-human Fc biosensors, RBD in solution

With B1 the Kd was 9.5 nM.
